Assay results taken from patent publication US20250282887A1 (Amgen, published 2025).

Legend:
[1] = biological target: T1, huMAGEB2(1-319), biotinylated full length MAGEB2 protein (human, UniProt O15479 1-319, biotinylated with recombinant BirA (site not stated)); assay: limited antigen FACS; biotinylated full length MAGEB2 on LumAvidin beads; B-cell supernatant
T1 construct: Expressed in E. coli from pET23; N-terminal 6xHis tag removed with caspase 3; also called Biotinylated MAGEB2 full length protein
T1 sequence: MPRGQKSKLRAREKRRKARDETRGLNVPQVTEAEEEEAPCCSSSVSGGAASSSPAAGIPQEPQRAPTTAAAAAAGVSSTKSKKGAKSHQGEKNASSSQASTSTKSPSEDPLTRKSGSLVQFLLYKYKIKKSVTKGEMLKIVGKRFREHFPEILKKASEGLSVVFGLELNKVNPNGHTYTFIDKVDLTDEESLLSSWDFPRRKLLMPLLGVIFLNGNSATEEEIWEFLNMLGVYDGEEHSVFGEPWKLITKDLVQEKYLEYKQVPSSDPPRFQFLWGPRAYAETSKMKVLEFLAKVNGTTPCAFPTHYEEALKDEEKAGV
Description: Biotinylated MAGEB2 full length protein was titrated 1:2 across 6 different limited antigen concentrations and then coated onto six different LumAvidin beads in FACS buffer [1×PBS+2% fetal bovine serum (Hyclone Cat No. SH30396.03)] for 30 minutes at room temperature in the dark. The beads were then washed twice in FACS buffer by centrifugation for 2 min at 3500 RPM. The coated beads were resuspended and pooled together (6-plex) and added to the rabbit B-cell supernatants at a 1:2 final dilution onto Corning 3897 96 well V-bottom polystyrene plates and incubated overnight at room temperature in the dark. […] A final wash was done before plates were read on the iQue FACS machine with Intellicyte autosampler to obtain flow cytometry measurements according to the manufacturer's recommendations; data analysis was done on Intellicyt ForeCyt® Enterprise Client Edition 6.2 (R3).

[2] = biological target: T2, Human MAGEB2 (Melanoma-associated antigen B2) (human, UniProt O15479 1-319); assay: IHC, antibody supernatant on FFPE CHO cells transfected with human MAGEB2
T2 construct: Intracellular antigen detected by IHC in FFPE material: CHO cells transfected with human MAGEB2 (mCherry vector with Myc/DDK tags, or ORF without tags)
T2 sequence: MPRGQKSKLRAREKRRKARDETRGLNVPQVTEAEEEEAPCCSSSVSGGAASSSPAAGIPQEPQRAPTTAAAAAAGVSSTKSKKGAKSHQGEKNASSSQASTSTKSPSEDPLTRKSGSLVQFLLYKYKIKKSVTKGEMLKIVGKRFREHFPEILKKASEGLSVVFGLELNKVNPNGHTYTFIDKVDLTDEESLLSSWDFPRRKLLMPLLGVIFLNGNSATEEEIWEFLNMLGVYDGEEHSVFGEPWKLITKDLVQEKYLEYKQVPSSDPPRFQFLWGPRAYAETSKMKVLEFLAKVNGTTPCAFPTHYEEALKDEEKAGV
Description: Negative control cells included parental Chinese hamster ovary (CHO) cells, CHO cells stably transfected with mCherry Vector Control (minus Myc/DDK tags), CHO cells stably transfected with mCherry-human DCAF4L2 (plus Myc/DDK tags). The cross-reactivity control cells included CHO cells transfected with mCherry Vector Control (plus Myc/DDK tags) with one of the human MAGE-B or MAGE-A family members (MAGEA1, MAGEA2, MAGEA3, MAGEA4, MAGEA5, MAGEA6, MAGEA8, MAGEA9, MAGEA11, MAGEA12, MAGEB1, MAGEB3, MAGEB4, MAGEB5, MAGEB6, MAGEB10, MAGEB16, MAGEB17, MAGEB18). Positive control cell lines included CHO cells transfected with mCherry Vector (plus Myc/DDK tags) with human MAGE-B2 or CHO cells transfected with mCherry Vector (open reading frame (ORF); minus Myc/DDK tags) with human MAGEB2, and thirteen human cancer cell lines with known endogenous RNA expression level of MAGEB2 (U266B1, T98G, KMM-1, U20S, CFPAC-1, SCaBER, UACC-257, CFPAC-1, VMRC-LCD, NCI-H1703, UM-UC-3, NCI-H1395, NCIH82).
FFPE samples were sectioned at 4 μm and mounted on positive charged glass slides. After mounting, paraffin sections were air-dried at room temperature. FFPE TMA samples were received as freshly sectioned and mounted on glass slides. The fully automated IHC assay was performed on a Discovery Ultra Stainer (Ventana Medical Systems, Tucson, AZ) using Ventana Anti-Rabbit HQ (cat #760-4815), Ventana Anti-HQ HRP (cat #760-4820), and Ventana Antibody Diluent with Casein (cat #760-219) (Ventana Medical Systems, Tucson, AZ). The slides were baked on the Discovery Ultra Stainer at 60° C. for 8 minutes, de-paraffinized with Ventana Discovery wash (cat #950-510) for 3 cycles (8 minutes each) at 69° C., and underwent cell conditioning (target retrieval) at 95° C. for 16 minutes (for cell arrays) or 32 minutes (tissues or TMAs) in CC1 buffer (cat #950-500). Following this, slides were incubated with Background Sniper (cat #BS966M, Biocare Medical, Pacheco, CA) in a Ventana Option Prep kit (cat #771-751) for 28 minutes, incubated with CM inhibitor (a part of the Ventana DAB kit cat #760-159) for 12 minutes, and incubated for 1 h at RT with MAGE-B2 antibody diluted with Ventana diluent with Casein in a Ventana Prep kit (cat #770-001) (working concentration at 0.1 μg/ml for cell pellet, or 1-5 ug/ml for tissues) or with a matched concentration of isotype control Rabbit IgG1 antibody.

B1: 4G8 (antibody, IgG1, V domains shown)
VH: QEQLVESGGGLVQPEGSLTLTCAASGFSFSSSYFMCWVRQAPGKGLEWIACIAVGSSGSTYYASWAKGRFTISKTSSTTVTLQMTSLTAADTATYFCARVGYDDYGDSDAFDPWGPGTLVTVSS
VL: AAVLTQTPSPVSAAVGGTVTINCQSSKSVYNKNWLSWFQQKPGQPPKLLIYGASTLASGVPSRFKGSGSGTQFTLTISDVQCDDVATYYCAGGYSSSSDTFAFGGGTEVVVK
notes: Rabbit monoclonal IgG1
B1: binds [1]; binds [2].

B2: 1I23 (antibody, IgG1, V domains shown)
VH: QEQLVESGGGLVQPKGSLTLTCAASGFSFSSSYFMCWVRQAPGKGLEWIACIGSGSSAISTFYASWAQGRFTISKTSSTTVTLQMTSLTAADTATYFCARVGYDDYGDSDAFDPWGPGTLVTVSS
VL: AAVLTQTPSPVSAAVGGTVSISCQSSKSVYNKNWLSWFQQKPGQPPKLLIYGASTLASGVPSRFKGSGSGTQFTLTISDVQCDDAATYYCAGGYSSSSDTFAFGGGTEVVVK
notes: Rabbit monoclonal IgG1
B2: binds [1]; binds [2].

B3: 4A7 (antibody, IgG1, V domains shown)
VH: QEQLVESGGGLVQPEGSLTLTCAASGFSFSSSYFMCWVRQAPGKGLEWIACIGVGGSGSTYYANWAKGRFTISKTSSTTVTLQMTSLTAADTATYFCARVAYDDDGDSDAFDPWGPGTLVTVSS
VL: AAVLTQTPSPVSAAVGGTVSISCQSSKSVYNKNWLSWFQQKPGQPPKLLIYGASTLASGVPSRFKGSGSGTQFTLTISGVQCDDAATYYCAGGYSSSSDTFAFGGGTEVVVK
notes: Rabbit monoclonal IgG1
B3: binds [1]; binds [2].

B4: 7F15 (antibody, IgG1, V domains shown)
VH: QEQLKESGGGLVAPGGTLTLTCAVSGFSLSSYNMGWVRQAPGEGLEYIGIIGASDSALYASWAKGRFTISKTSTTVDLKITSPTTEDTATYFCARGGLGLSTGFALWGPGTLVTVSS
VL: AAVLTQTPSPVSAAVGGTVSISCQSSQSVWHNDYLSWYQQKPGQPPKLLIYGASTLASGVPSRFKGSGSGTQFSLTISGVQCDDAATYYCAGGYGRSSENGFGGGTEVVVK
notes: Rabbit monoclonal IgG1
B4: binds [1]; binds [2].

B5: 5I9 (antibody, IgG1, V domains shown)
VH: QSLEESGGRLVTPGGPLTLTCTVSGFSLSSYDMSWVRQAPGKGLEWIGYIATDGRPYYASWAKGRFTISKPSSTTVDLKITSPTTEDTATYFCVRGGYAGGLWGPGTLVTVSS
VL: AAVLTQTPSPVSAAVGGTVSISCQSSKSVYNNNWLAWYQQKPGQRPKLLIYDASTLDSGVSSRFKGSGSGTQFTLTISDVQCDDGATYYCVGGYSSRSDNGFGGGTEVVVK
notes: Rabbit monoclonal IgG1
B5: binds [1]; binds [2].

B6: 7H4 (antibody, IgG1, V domains shown)
VH: QSLEESGGGLVKPGASLTLTCKASGSDFRSYYYICWVRQAPGKGLEWVACIGGGNTDATAYARWAKGRFTISKTSATTVALQMTSLTAADTATYFCVRGGPDNNVQFNLWGPGTLVTVSS
VL: QAVVTQTPSSVSAAVGGTVTISCQSSQSVYSNNLLSWYQQKPGQPPKLLIYKASTLASGVPSRLKGSGSGTQFTLTISEVQCDDAATYYCQGYYSGVIYMFGGGTEVVVK
notes: Rabbit monoclonal IgG1
B6: binds [1]; binds [2].

B7: 7B20 (antibody, IgG1, V domains shown)
VH: QSLEESGGGLVKPGASLTLTCKASGSDLSSAYYICWIRQAPGKGLEWVACIGGVNRVATAYATWAKGRFTISKTSSTTVTLQMTSLTAADTATYFCVRGGPDNNVQFNLWGPGTLVTVSS
VL: AQVLTQTPASVSAAVGGTVTISCQSSQSVYSSDLLSWYQQKPGQPPKLLIYKASTLASGVPSRFKGSGSGTQFTLTISELQCDDAATYYCQGYYSGVVYIFGGGTEVVVK
notes: Rabbit monoclonal IgG1
B7: binds [1]; binds [2].

B8: 1H17 (antibody, V domains shown)
VH: QEQLVESGGGLVKPGASLTLTCKASGFSFSSGQLMCWVRQAPGKGLEWIACIGSGSNAISTFYASWAQGRFTISKSSSTTVTLQLTSLTAADTATYFCARVGSDDYGDSDVFDPWGPGTLVTVSS
VL: AAVLTQTPSPVSAAVGGTVSASCQSSKSVYNKNWLSWFQQKPGQPPKLLIYGASTLASGVPSRFKGSGSGTQFTLTISDVQCDDAATYYCAGGYSSSSDTFAFGGGTEVVVKG
B8: binds [1]; binds [2].

B9: 1J16 (antibody, IgG1, V domains shown)
VH: QSLEESGGGLVQPEGSLTVTCTAFGVTLTNYYICWVRQAPGKGLEWIGCIDNINGRTYYASWAKGRFTISKTSSTTGTLQMTSLTAADTATYFCARSLATPLWGPGTLVTVSS
VL: DIVMTQTPASVEAAVGGTVTIKCQASQSISSYLAWYHQKPGQPPKLLIYAASTLASGVPSRFEGSGSGTQFTLTISDLECADAATYYCQSYDDSRSSSFFYAFGGGTEVVVK
notes: Rabbit monoclonal IgG1
B9: binds [1]; binds [2].

B10: 1H24 (antibody, IgG1, V domains shown)
VH: QSLEESGGGLVQPEGSLTLTCTASGFTLNNYYICWVRQAPGKGLEWIACIDNSNGRTYYASWAKGRFTISKTSSTTVTLQMTSLTAADTATYFCARSLSTPLWGPGTLVTVSS
VL: DIVMTQTPFSVEAAVGGTVTIKCQASQSISSYLSWYRQKPGQPPKLLIYRASTLASGVPSRFKGSGSGTQFTLTISDLECADAATYYCQSYDDSSSNNFFYGFGGGTEVVVR
notes: Rabbit monoclonal IgG1
B10: binds [1]; binds [2].

B11: 4A15 (antibody, IgG1, V domains shown)
VH: QSLEESGGGLVQPEGSLTLTCTASGVTLTNYYICWVRQAPGKGLEWIGCIDNVNGRTYYASWAKGRFTISKASSTTGTLQMTSLTAADTATYFCARSLATPLWGPGTLVTVSS
VL: DIVMTQTPASVEAAVGGTVTIKCQASQNINSYLAWYQQKPGQPPKLLIYRASTLASGVPSRFKGSGSGTEFTLTISDLECADAATYYCQSYDDSRSISFFYAFGGGTEVVVK
notes: Rabbit monoclonal IgG1
B11: binds [1]; binds [2].

B12: 1C18 (antibody, IgG1, V domains shown)
VH: QSLEESGGGLVQPEGSLTLTCTASGFTLTNYYICWVRQAPGKGLEWIACIDNANGRTYYATWAKGRFTISKTSSTTVTLQMPSLTAADTATYFCARSLSTNLWGPGTLVTVSS
VL: DIVMTQTPASVEAAVGGTVTIKCQASQSISSWLSWYQQKPGQPPKLLLYRATTLASGVPSRFKGSGSGTQFTLTISDLECADAATYYCQSYDDSSSSNFFYAFGGGTEVVVR
notes: Rabbit monoclonal IgG1
B12: binds [1]; binds [2].

B13: 1D2 (antibody, IgG1, V domains shown)
VH: QSLEESGGGLVQPEGSLTLTCTASGFTLNNYYICWVRQAPGKGLEWIACIDNVNGRTYYASWAKGRFTISRTSSTTVTLQMTSLTAADTATYFCARSLSTPLWGPGTLVTVSS
VL: DIVMTQTPFSVEAAVGGTVTIKCQASQSISSYLSWYQQKPGQPPKLLIYRASPLASGVPSRFKGSGSGTQFTLTISDLECADAATYYCQSYDDSSSNNFFYGFGGGTEVVVR
notes: Rabbit monoclonal IgG1
B13: binds [1]; binds [2].

B14: 7M5 (antibody, IgG1, V domains shown)
VH: QSLEESGGRLVTPGGSLTLTCTVSGIDLSSHAMIWVRQAPGEGLEWIGTIGSRDTIYYASWAKGRFTISKTSSTTMDLKMTSLTIEDTATYFCVRNALWGPGTLVTVSS
VL: DVVMTQTPASVSEPVGGTVTIKCQASQSIRNELFWWQQKPGQPPKLLIYAASKLASGVPSRFSGSGSGTEFTLTISDLECADAATYYCQCSYVSSSGTYGNVFGGGTEVVVK
notes: Rabbit monoclonal IgG1
B14: binds [1]; binds [2].
